US12018066 (TRIAD NATIONAL SECURITY, dated 2024)
Substitutions are numbered along the chain they refer to.

B1: E08 rabbit minibody (scFv-rabbit Fc) (Fc fusion)
scFv-Fc: SYVLTQPPSVSVAPGKTARITCGGNNIGWKSVHWYQQKPGQAPVLVVYDDSDRPSGIPERFSGSNSGNTATLTISRVEAGDEADYYCQVWDSSSDLVVFGGGTKLTVLSGGSTITSYNVYYTKLSSSGTQVQLVQSGAEVKKPGSSVKVSCKASGGTFSSYAISWVRQAPGQGLEWMGGIIPIFGTANYAQKFQGRVTITADESTSTAYMELSSLRSEDTAVYYCARASGRWLQFWHYYGMDVWGQGTTVTVSS
B2: H01 rabbit minibody (scFv-rabbit Fc) (Fc fusion)
scFv-Fc: QPGLTQPPSVSLAPGQTARITCGGNNIGSKSVHWYQQKPGQAPVLVVYDDSDRPSGIPERFSGSNAGNTATLTISRVEAGDEADYYCQVWDSRSDQYVFGTRTKLTVLSGGSTITSYNVYYTKLSSSGAQVTLKESGPVLVKPTETLTLTCTVSGFSLSNARMGVSWIRQPPGKALEWLAHIFSNGEKSYSTSLKSRLTISKDTSKSQVVLTMTNMDPVDTATYYCARTLDYYDSSGYLVGGAFDIWGQGTMVTVSS
B3: D11 human minibody (scFv-human Fc) (Fc fusion)
scFv-Fc: SYELTQPPSVSVAPGQTARITCGGNNIGSKSVHWYQQKPGQAPVLVVYDDSDRPSGIPERFSGSNSGNTATLTISGTQAMDEADYYCQAWDSSTAYVFGSGTKLTVLSGGSTITSYNVYYTKLSSSGTQVQLEESGGGLVQPGGSLRLSCAASGFTFSNYAMSWVRQAPGKGLEWVSAISGSGGATFHADSVKGRFTISRDNSKNTLYLQMNSLRAEDTAVYYCARRVGYDSSGYYWSDAFDIWGQGTMVTVSS
B4: E01 human minibody (scFv-human Fc) (Fc fusion)
chain: SYELTQPPSVSVAPGETARITCGGDNIGRRHVHWYQQKPGQAPVLVIYDDSDRPSGIPDRFSGSNSGNTATLTIGRVEAGDEADYYCQVWGSSNDPHVFGTGTKLTVLSGGSTITSNNVYYTKLSSSGTQVQLQQWGAGLLKPSETLSLKCAVYGGSFSGYYWGWIRQSTGKGLEWIGEINRSGSTNYNPSLKSRVTISVDTSKNQFSLKLSSVTAADTAVYYCARGGARYYYGSGSYRSTPRPYYFDYWGQGTLVTVSS
B5: G07 human minibody (scFv-human Fc) (Fc fusion)
scFv-Fc: QSVLIQPPSASGTPGQRVTISCSGSNSNFGSNSVSWYQQRPGTAPKLLIEGNNQRPSGVPERFSGSKSGTSASLAISGLQSEDEAEYSCASWDDSLNAFVFGPGTKLTVLSGGSAITSYNVYYTKLSSSGTQVQLVQSGAEVKKPGESLKISCKGSGYSFTSYWIGWVRQMPGKGLEWMGIIYPGDSDIRYSPSFQGQVTISADKSFSSAYLQWSSLKASDTAMYYCARLGATGAFDIWGQGTTVTVSS
B6: H02 human minibody (scFv-human Fc) (Fc fusion)
scFv-Fc: QSVVTQPPSVSAAPGQKVTISCSGSSSNIGNNYVSWYQQLPGTAPKLLIYRDTQRPSGVPDRFSGSKSGTSASLAISGLRSEDEADYYCATWDKSLSGPVFGGGTKVTVLSGGSTITSYNVYYTKLSSSGTQVQLQQSGPGLVKPSQTLSLTCAISGDSVSSNSAAWNWIRQSPSRGLEWLGRTYYRSKWYNDYAVSVKSRIIINPDTSKNQFSLQLNSVTPEDTAVYYCARQDNNPYYGLDVWGQGTTVTVSS
B7: H03 human minibody (scFv-human Fc) (Fc fusion)
scFv-Fc: SYELTQPPSVSVAPGQTARITCGGNNIGSKSVHWYQQKPGQAPVLVIYYDSDRPSGIPERFSGSNSGNTATLTISRVEAGDEADYYCQVWDSSSALYVFGTRTKVTVLSGGSTITSYNVYYTKLSSSGTQVQLVESGGGLVQPGRSLRLSCAASGFTFDDYAMHWVRQAPGKGLEWVSGISWNSGSIGYADSVKGRFTISRDNAKNSLYLQVNSLRAEDTAVYYCARELIVGTTSPQTDAFDIWGQGTMVTVSS
B8: H05 human minibody (scFv-human Fc) (Fc fusion)
scFv-Fc: SYVLTQPPSVSVAPGQTARITCGANNIGRISVHWYQQKPGQAPVLVVYDDSDRPSGIPERFSGSNFGNTATLTISRVEAGDEADYYCQVWDSYSDHVIFGGGTKLTVLSGGSTITSYNVYYTKLSSSGTQVQLVQSGAEVKKPGSSVKVSCKASGGTFSSYAISWVRQAPGQGLEWMGGIIPIFGTANYAQKFQGRVTITADESTSTAYMELSSLRSEDTAVYYCARSIFGVVIISHADGYYYGMDVWGQGTTVTVSS
B9: R26 human minibody (scFv-human Fc) (Fc fusion)
scFv-Fc: SYELTQPPSVSVAPGQTATITCGGKNIESKSVHWYQQKPGQAPVLVVSDDTDRASGIPERFSGSNSGGAATLTISRVEAGDEADYYCQVWDSPSDHYVFGPGTKLTVLSGGSTITSYNVYYTKLSSSGTQVQLVESGGGVVQPGRSLRLSCAASGFTFSSYAMHWVRQAPGKGLEWVAVISYDGSNKYYADSVKGRFTISRDKAKNTLYLQMNSLRGEDTAVYYCARELSYYDSSGYLRGDWYFDLWGRGTLVTVSS
B10: B04 rabbit minibody (scFv-rabbit Fc) (Fc fusion)
scFv-Fc: SYVLTQPPSVSVAPGKTARITCGGNNIGIRSVHWYQQKPGQAPVLVIYYDSDRPSGIPERFSGSKSGNTATLTISRVEAGDEADYYCQVWDSSSDHPVFGGGTKLTVLSGGSTITSYNVYYTKLSSSGTQVQLVESGAEVKKPGASVKVSCKASGYTFTRYYMHWVRQAPGQGLEWMGIINPSGGTTSYAQKFQGRVTMTRDTSTSTVYMELSSLRSEDTAVYYCARSFGELTSFDYWGQGTLVTVSS
B11: B10 rabbit minibody (scFv-rabbit Fc) (Fc fusion)
scFv-Fc: QSVVTQPPSVSGAPGQRVTISCTGSSSNIGSRTVNWYQQLPGTAPKLLIYANNQRPSGVPDRFSGSKSGTSASLAISGLQSEDEADYYCAAWDDSLNGYVFGTGTKLTVLSGGSTITSYNVYYTKLSSSGTQVQLQQSGPGLVKPSQTLSLTCAISGDSVSSNSATWNWIRQSPSRGLEWLGRTYYGSKWHSDYAVSVKSRITINPDTSKNQISLHLNPVTPEDTAVYYCARGRSYAFDIWDQGTMVTVSS
B12: D04 rabbit minibody (scFv-rabbit Fc) (Fc fusion)
scFv-Fc: SYVLTQPPSVSVAPGKTARITCGGNNIGWKSVHWYQQKPGQAPVLVVYNDNDRPSGVPERFSGSNSGNTATLTISRVVAGDEADYYCQVWDSSSDHVLFGGGTKLTVLSGGSTITSYNVYYTKLSSSGTQVQLVQSGAEVKKPGSSVKVSCKASGGTFSSYAISWVRQAPGQGLEWMGGIIPIFGTANYAQKFQGRVTITADESTSTAYMELSSLRSEDTAVYYCARASGRWLQFWHYYGMDVWGQGTTVTVS
B13: D07 rabbit minibody (scFv-rabbit Fc) (Fc fusion)
scFv-Fc: B2 scFv-Fc with Q1S, P2Y, G3E, L12V, Q16E, I20M, S29T, S31G
B14: D10 rabbit minibody (scFv-rabbit Fc) (Fc fusion)
scFv-Fc: QSVVTQPPSASGSPGQTVTISCSGNSANIGGNPVNWYQQLPGTAPKLLIYSNNQRPSGVPDRFSGSKSGISASLAISGLQSEDEADYYCAAWDDSLNGVIFGGGTKLTVLSGGSTITSYNVYYTKLSSSGTQVQLVQSGAEVKKPGESLKISCKGSGYSFTSYWIGWVRQMPGKGLEWMGIIYPGDSDTRYSPSFQGQVTISADKSISTAYLQWSSLKASDTAMYYCARRHSGSYSGAFDIWGQGTMVTVSS
B15: D11 rabbit minibody (scFv-rabbit Fc) (Fc fusion)
scFv-Fc: B3 scFv-Fc
B16: G07 rabbit minibody (scFv-rabbit Fc) (Fc fusion)
scFv-Fc: B5 scFv-Fc
B17: H02 rabbit minibody (scFv-rabbit Fc) (Fc fusion)
scFv-Fc: B6 scFv-Fc
B18: H03 rabbit minibody (scFv-rabbit Fc) (Fc fusion)
scFv-Fc: B7 scFv-Fc
B19: H05 rabbit minibody (scFv-rabbit Fc) (Fc fusion)
scFv-Fc: B8 scFv-Fc

Assays:
[1] = biological target: T1, SARS-CoV spike protein receptor binding domain (RBD1) (SARS-CoV, UniProt P59594 306-527); test: ELISA, crude rabbit minibody
[2] = biological target: T1, SARS-CoV spike protein receptor binding …; test: ELISA, crude human minibody

Binder	binding result [1]	binding result [2]
B1	binds	
B2	no binding	
B3		no binding
B4		no binding
B5		no binding
B6		no binding
B7		no binding
B8		no binding
B9		no binding
B10	no binding	
B11	no binding	
B12	no binding	
B13	no binding	
B14	no binding	
B15	no binding	
B16	no binding	
B17	no binding	
B18	no binding	
B19	no binding	
